This assay concerns the target T1, Human c-Met ECD (Flag and strep tag) (human, UniProt P08581 25-932).
T1 construct: also called HMet; Human Wt c-Met; not shown: Flag and strep tag
In words: ELISA; mAb immobilized (2 µg/ml), c-Met protein added, streptavidin-HRP. In general terms: In an ELISA, binding on a coated surface is turned into a signal by an enzyme label.

The term EC50 denotes the midpoint of the concentration-response curve. The low end stands for greater potency, the high end for weaker potency.

T1 sequence (P08581 25-932): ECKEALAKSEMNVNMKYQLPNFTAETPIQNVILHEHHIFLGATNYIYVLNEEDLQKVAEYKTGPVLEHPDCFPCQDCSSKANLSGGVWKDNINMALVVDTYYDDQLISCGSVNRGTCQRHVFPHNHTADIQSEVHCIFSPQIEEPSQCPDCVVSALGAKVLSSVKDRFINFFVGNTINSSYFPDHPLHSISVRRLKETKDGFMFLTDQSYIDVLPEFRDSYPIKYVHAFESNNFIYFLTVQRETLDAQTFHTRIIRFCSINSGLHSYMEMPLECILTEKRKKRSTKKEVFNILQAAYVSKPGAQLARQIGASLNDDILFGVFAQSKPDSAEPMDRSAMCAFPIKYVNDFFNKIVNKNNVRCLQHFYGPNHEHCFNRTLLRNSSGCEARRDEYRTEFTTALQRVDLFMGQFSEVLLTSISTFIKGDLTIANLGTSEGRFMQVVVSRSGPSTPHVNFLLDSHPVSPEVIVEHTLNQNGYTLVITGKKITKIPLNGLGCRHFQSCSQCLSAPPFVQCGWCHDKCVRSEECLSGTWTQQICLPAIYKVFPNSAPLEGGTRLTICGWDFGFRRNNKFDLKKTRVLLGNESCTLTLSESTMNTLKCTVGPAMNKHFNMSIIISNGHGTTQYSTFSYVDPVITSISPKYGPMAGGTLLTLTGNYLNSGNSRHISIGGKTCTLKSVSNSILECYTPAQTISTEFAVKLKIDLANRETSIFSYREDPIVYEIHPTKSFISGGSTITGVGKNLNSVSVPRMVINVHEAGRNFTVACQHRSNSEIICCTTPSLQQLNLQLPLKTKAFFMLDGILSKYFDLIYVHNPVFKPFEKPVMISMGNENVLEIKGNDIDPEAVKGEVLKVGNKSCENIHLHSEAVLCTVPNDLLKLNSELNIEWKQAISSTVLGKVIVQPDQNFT

B1: 48A2 (antibody, V domains shown)
VH: EVQLVQPGVELRNPGASVKVSCKASGYIFTMNSIDWVRQAPGQGLEWMGRIDPEDGGTKYAQKFQGRVTFTADTSTSTAYVELNSLRSEDTAVYYCARVDDYYLGYDYWGQGTQVTVSS
VL: DIVMTQTPTSVTASAGDKVTINCKSSQSVLFSSNQKNYLAWYQQRLGQSPRLLIYWASIRESGVPDRFSGSGSATDFTLTISNFQPEDAAVYYCQQGYSFPYSFGSGTRLEIR
B1: the EC50 was 0.045 µg/mL.
